Test: soluble fraction after stress (log2 fold change); higher = more stays soluble; pooled small domains, quantitative proteomics
Conditions: stress: 75 degC
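Further: 20 min heating vs room temperature control held 20 min.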

Sequence	soluble fraction (log2)
HMTKEEREKREKYEKLMKKAEELTAAKNHREVINVLGQAKAYATAAQLKEIEEKIKAATSEMNK	0.326
HMTKEGVNISITADGVQLSTESPNRVSIFNVNGTKVWEGIAPANVSLQKGVYILQTANGNTKFV	0.597
HMTKLLITNYERNVLINSYLLKNTPELDDIRRLLVHNKHISENDVSTEMARRIKKHKADWLRVT	-3.4
HMTKLTPLEVNLYAKKLANDPEFGSKHIEPGESFSQAEERLRVQLSQQEYVQKYSKYLKKLKASA	-0.198
HMTKPAEVRIDELMNAAQTLFLAKGVEATTISEIIASVGVAKGTFYHYFESKQHIVEALKKRYID	-1.85
HMTKQNVVPLMYRMIDTLEQFIKADVPFNIETRLARVERLRETMVSSSVTTSEKFRQVLEAYTIETD	-1.05
HMTKSEWLRESREHLGLSQTDLRNLLNTALNRSYDKSRISRWENSKENIPAEVVKQIESLIATR	-0.0559
HMTKTRTEILEYLKQNWSVTVSASDIKKHLEEKEIKANTTTIYRYLDKLLAEHVIIKYADAGSERAVYQYS	-2.23
HMTKVIEFLVSDEEHGVRADKAFVSHNQKLSRSYFKKLILNGNLYINNKVNLDPSYKLIKGSTVRIILPE	-2.58
HMTKVKIDRLFSIVQMLVNRKSVTAKELADYFNVSVRTIYRDIEILSANGIPIYATQGKGGGISILEN	-1.74
HMTKYEGLSLDLIIDGVVITHNLKLAKLDMNWLLDRLKENGWDNPKDIFYAYIDTAGNFRFQPKLKASRTR	0.473
HMTKYREVLRMSAGGFSQRVIASTLSISRNTVASTLKRAREQNLDWEAVEQQRLSEKDIANLLFP	-3.22
HMTLAEEFNNLNGKVITRETLESLLVKAEKEQNSTISNRIRKVLQAYTADTFLIELQHTESA	-0.0241
HMTLALKQGSTGSTVKQVQQKLKNWGYYSGAVDGIFGSGTRKAVVLFQKRNKLTADGIVGSKTLEALGIYV	-2.36
HMTLDDSIALGRSLLDKGLMDFGTNLANLAEDKLRDFLSQQRYENLDDLFADIARGNRLPMFTAQQLLS	-0.0666
HMTLDVALSKEIKYMLKEEHYLPGDKLPSERKLAELFHVQRLTVRGALNLLLQDKTIISKPRSGYYVAPKR	-2.88
HMTLFDESGYTARELEIIREVANGLSNKEIADKLFLSEGTVKNYITGILAKENLSHRTALAVYYLTGRK	-1.83
HMTLHEAMEKLFRQVGRPMTTKEIAEKLNENKWYQKADGSPLTPYQIYGRAKNYPALFHREGSIIYLKGS	-0.547
HMTLKTISLTEAIKNTNEGNYSKLVLDGNELTITEQGKETPSLKTYTEPGTSLKEQGFDLSKVEFEAREQS	-0.0223
HMTLNQEELMGKTEAILFAGGEPVSLDRIAQVLGVRTPVIDSIVSALQEKYNTPTSGIQLMRL	-0.267
HMTLPELTDRELQILQLLSVGNSSQKIAKQLNISTHTVSTHRKQLLRKLGAQNGADLIRRAQKLGIL	-1.78
HMTLQEFYARVGGDYNATLSRLPSEALVKKFILKYPGDPSFAQLKDALAAQDWELAFRASHTLKGVAQN	-1.9
HMTLSAPMPGTVLKIHVKEGQRVRKGQTLVVLEAMKMEHRIQAPKAGEVTNLHFSEGDRVDMGEILVEIG	-2.34
HMTLSDDEFEIIKSLIIDTLKEEALTINALTKKINHKEAKTIQVIRFLLDNGLVAENNLMKLFVI	-1.43
HMTLTIEDQLRRLRARLGRGRAFLFSDVLVNPHDRTEIAVTLLALLELIKRREAQASQSYLFGPIEVAAA	-2.01
HMTLTLEQAAAIKNSEGEQYGKIESERLAAMSVQIDKAIKSNGHDPNKKADLERKLDAIGIILNARAAG	0.222

Sequence	soluble fraction (log2)
HMTLVKRSAMVTAWSEFAGGRVNSKLIALQNGKAGDWIELENPQSGRKLRGRVQSDGSVRLGS	-1.07
HMTLYITDQMRKILDYVATNQEIDEKAVMDLLSIQRTRAYLIAKKMTDIGLLQVQGRGKTKTYRLAARS	-2.08
HMTLYQIGDKVVHPMHGAGVIDSVVQRKVSGQVQEFYLLKLSVGNMVVMVPTDNTGEIGMRP	-2.52
HMTMEQAEFLSRQFNLLSQRLNDPSIEWQDIADLRSEYTGEDEHRDTIRKGAKLFYEYLEAGWIKN	-0.76
HMTMKNPNGYGSVINLGKGRRRPWAARVTTGLVYDEKKDKLIQRYKYIGYADTRKEAHQILAEYNAGLPI	-1.76
HMTMMTFGEKLQNARKGAGLSQEQLAEKLSVSRSAVAKWENDNGMPDIDNLKAIAQLLDVSIDYLLEN	0.812
HMTMNLIEIGHVVGARRAELGLTQAQLAHLSGLSRQTVVGLEKGTLSDLGVNRVGQVMAVLGLDS	-0.555
HMTMPDFGYMRVSYAEARRQLQAIGISVSTIEKVEDPSHTSATGDMVISQYPAAGSKIEGTVTLYVSVAS	-3.65
HMTMSFSELLRGLRKSRGMSQAELATAVGLSQAQVSQIETGKLLPSPELIEKLAALYGIALGSA	0.279
HMTMTKELGQRIRAERTARKMTQEELAERADLHPTYIGQVERGEKSLTIASLEKIVEGLGISFSDLFEN	0.244
HMTMVKYRYLTDGELKEFEEEFKHFLIANGLHSEEWERLNNEDSNKAIEVVALFSNLILDKV	-1.81
HMTMVLPDAARDKLKAIGLSIEHVEPSPVKDIFTVISREGVSYVSKDGDYIFTGSLFHVKGKDVVNTTEQA	0.0464
HMTNEAFITPSVLEWAIKRAGVSAESIHKKAEQWVSGKARPTFKQAVDIAKTLQIPFGYLWLKEPPKEQ	-0.949
HMTNELVNVNKLLDVMEPSIPLTALEIMTRLGIKSKETLRNSYLNPAIKLGMINLTSPLKPTSKNQMYYK	-1.02
HMTNKSKQRRNEILRASQELFNKKGFHDTSINDIMRRVGAAKGVFYYYFETKDQILDTLIEQHIA	-0.978
HMTNLTPKQQQIYQFIRASTQANGYPPTLREIGQQVGVRSPSTVKYHLDNLRTLGLLHWDGGKTRSITLP	-0.77
HMTNNFIVTWRNYNEEVLEIDVNVKKGSMPKYNGKTPEREGYQFVGWDPEITEVTKDITYVAQFM	-1.92
HMTNQKEITYSQFRQELDQGSIKSVSLQGSRIRGTYVDGGISFRTLAPNDADLIPSLMKHKVDIQVLPED	0.292
HMTNSTGWSKSGGTQVTIREGETIYNLSRRYGVPAKSIMEANGIADATAVRAGQRISIPTYSY	-0.0378
HMTNVDELIGKEAVVVKEIRPYTTGEVKLDGKVWRAMSESKQVYKVDEIVTVLRIEGVTMII	-2.46
HMTNVETLVRMRLRSIRTTLGYSLDEIAERSNLSASTVSRIETGKRALSIDVLVPLAAALQVSVDDLLRAE	-2.92
HMTNYREILRLRSLGLNHSRIAESMGISRPTVIAALQRAQTQELNWQAAESLSDIDLAQRLNP	-0.847
HMTNYYTVTFKEGDTVLKEVSVHSGDGVPYAVAPKRDDIVGWSYNGNTYTTDLNTLKIKKEVTFTAVT	0.235
HMTPAIEKTAVIVFINGKKYYVHTVKSGETLYSIAKAYKVDEKVIKEHNPNVADGLRIDQTVKIPVPEQVK	-0.549
HMTPAPHESLTDREMEVLKLLAQGLSNQEIADKLFIGVKTVKYHITNIFSKLGVEDRTQAAIYAHKQGLA	-0.475
HMTPDDSYIAGYAAGILKHQFLIDAPELIVRNGTITIPADKVSAGDRAKVVQILSGIPGVTRVEVG	0.224

Sequence	soluble fraction (log2)
HMTPDVHRGDTITVSLRAGAIRVRVPAKALEEGAAGGEIRVVNLTGGREYRVRVTGPGTAEAIL	-0.966
HMTPEGAYTVSEIVKVINSFADEYKVPFTMHVSGYKYEEIAQQLGLPIGTVKSRIFFARKRLQELLN	-2.45
HMTPEPVTMYITSLTEFRSEPNTEAGIIKLLDAYEEVEMIESRGEWSKISYGDQIGYILSEFLTAENRT	-0.85
HMTPILTAQQVVAALQAAGYRNVHDLEFEHGRWEADAVNAAGQRVELHINPYTGAIERERLD	0.584
HMTPKTSVPKPGQTVVVRKGDTIYALARIHDITPADLIAWNRLDNPSQIYPGQVIRLYPQGA	-0.563
HMTPKVDLTVAEDGSASAVIAGLRVEIDAAGKVTAVAPADGTTDLSSVAPEAVKEAMDNALAAYTASKG	0.12
HMTPLFNQGEVLKGFVLQTGTNNRVLLQIGTAKVLADAQTPLKAGEQLTLRVEATGPRTVLQILG	-0.461
HMTPLILTAQEGGERLDAFVASQVEDLTRSAAQRLLEQGAVTSGGKPLKKNAKTTPGMVVEVLLPDPQ	-0.113
HMTPPPTNSREWMEWGISHGLDANLDRSGQVVFYTDDRVVADAAELSGADLERDNMGQFVIYTGAYDKG	0.0155
HMTPQEQWNNAYLLAKDYYDANGNLDIDEKYKTKDGFELGSWLTTQRNVYKRGKLSPEKTKKLEEIGISF	0.0776
HMTPQGALDYSRNAKYLRDQVTAINYLKQARLSLNTTDANYRQTLEQINQAIAKHNQALQQAGVQSQQLAT	-0.00591
HMTPTPQQNNILVGQTGTTLTRLAPMGKVRVGEVTAEAKTIDGYINPRQSVEVIGFENTVVIVRAV	-0.748
HMTPVIINESGGDQDTRIEGLNDNNLLYVDASTDRVGVGVATPTQKLDVNGDVAISGGSLYLSQ	0.183
HMTPVKAPLPGVVTKINVSVGQQVKKGENVLVLEAMKMENNIAAEADGTVSGIAVKAGDSVLEGAVLLTI	0.0213
HMTPVTYELTVQSGAGQRIDKYLSEQLADLTRSYLQKLLKDGGVTVNGKTVKSNYKLSENDQIFLEVPDA	0.0544
HMTPVYLNARQKQILAFLKREEPAKVGDIAHALKTISINTLKKDLLYLRQKNLIESHGVLKGTIYTVK	-1.6
HMTQEFIVPKVTGYTVEDAMNLSGVKDVFEITVDSTEKSDQPAGIILFQDPKDGSSRKSDLVIHVVVSAGS	-0.363
HMTQEQKQQISDQLRAYVEQKGSGNKAAASMNGVSSATISKVLAGKWETISEDMWRSIAAQTGH	0.325
HMTQFSLTTEEINVLKKSYSEFTDSDKELFNKILEKYNKFKNESSNDIAFEAKILEKLQEIENFYE	-0.00344
HMTQMSVLFSELEAKDAATIADKLRERNIPYELSNNGSTILIPQEVLHDTRLSLASEGLPES	0.0765
HMTQPAEINRLVEQMGSSDYKSRQEAYERLHQMGPGILDLIYPYRNHADPEIQTRVRELILSYRW	-0.0738
HMTQQNRDELYRRMIDAGWDQLVRNGIRSLRVEQVAAAVGIAKGTFYHFFDSKDDFIYAMLMENRQ	-3.41
HMTQSPLHWSHRPIDLSELLTYLDRDGAFVYASGHKAPFTEVVRGFEHLLNIRLGDPRDVKRSVLQR	-0.109
HMTQTGEVIRWDAERGFGFIATADGRRHVFFHVRDFRGGAAPGVGLRVGFEEIQVGGKGPRAMDVRPL	-1.28
HMTRDGMTKEAFDSLLEDIMNILLDNGLKATTMGSIAKSLKMSKRTLYEIFSSKSQMVEEAIIASHTKMM	0.214

Reference: the domain aggregation screens of Martell et al. (2025)
